In paper PMC3531375:

Molecular target: MAP1B light chain 1, C-terminal myc-tag, expressed in COS7 cells (UniProt P15205)
Chain of UniProt P15205 (P15205 2210-2459): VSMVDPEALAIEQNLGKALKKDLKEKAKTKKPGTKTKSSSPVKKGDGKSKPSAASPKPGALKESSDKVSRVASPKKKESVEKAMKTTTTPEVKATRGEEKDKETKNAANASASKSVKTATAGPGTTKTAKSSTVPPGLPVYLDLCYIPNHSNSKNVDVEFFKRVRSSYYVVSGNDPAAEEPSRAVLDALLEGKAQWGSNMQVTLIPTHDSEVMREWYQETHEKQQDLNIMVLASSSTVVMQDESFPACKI

Q: For “N-terminal truncated Tiam1 (C1199), C-terminal HA-tag (domain or fragment)”, which Rac1-GTP pulled down by GST-PAK1 CRIB domain from lysates of COS7 cells co-expressing Tiam1 (C1199 HA) and myc-tagged LC1, relative to total Rac1 is on record?
A: The Rac1-GTP pulled down by GST-PAK1 CRIB domain from lysates of COS7 cells co-expressing Tiam1 (C1199 HA) and myc-tagged LC1, relative to total Rac1 was 2 fold.
